Assay results as given in publication PMC5432818, “Biochemical characterization of a functional recombinant aryl-alcohol dehydrogenase from Taiwanofungus camphorata” (Botanical Studies, 2014).

Test system: COc1ccc(C=O)cc1OC
Test: purified protein
Type: biochemical, Taiwanofungus camphoratus
Conditions: reduction, 0.2 mM NADPH fixed, 25 mM bis-tris-propane/HCl pH 6.0, 25 °C, veratraldehyde 0.1-0.4 mM

TcAAD (also printed TcADD) (Taiwanofungus camphoratus)
Km: 250 µM
